Experimental data: paper PMC3699631, “Posttranslational Modifications of the Histone 3 Tail and Their Impact on the Activity of Histone Lysine Demethylases In Vitro” (PLoS ONE, 2013)

What was measured:
[1] = test system: cc-KDM4A; assay: MALDI-TOF-MS demethylation, truncated KDM4A; type: biochemical, human
Protocol: (§1) The enzyme kinetics were measured using a Formaldehyde DeHydrogenase Assay (FDH-Assay) and the demethylation of substrates was confirmed when possible by MALDI-TOF-MS, see File S1 for details. The test solution contained 50 mM HEPES (pH 7.5), 50 mM NaCl, 50 µM FeSO4, 500 µM α-KG, 500 µM ascorbate, 2 mM NAD, approximately 0.05 unit of FDH and e.g. 4.88 µM KDM4C (enzyme concentration varied between batches). The reference solution was comprised of the same except substrate. The assay was initiated by adding various concentrations of H3 peptide substrates e.g. H3(1–24)K9me3 (10–1000 µM) and the increase in NADH fluorescence was measured over 15–30 minutes in 30 second intervals. Data analysis and kinetic values were obtained using programs Excel and GraphPad Prism® 5.0. For details, see File S1.
(§2) The reaction mixture was diluted 1: 9 with a saturated solution of α-cyano-4-hydroxycinnamic acid (Aldrich) in a mixture of 65 % acetonitrile and 35 % MilliQ water containing 0.1 % TFA. 1 µl of the sample was spotted onto the target and air dried. The MALDI-TOF MS was carried out on an Ultraflex TOF/TOF (Bruker) operated in positive ion mode with an Ion source voltage of 25 kV, a lens voltage of 7.5 kV and a reflector voltage of 26.3 kV. The system was run in deflection mode with a mass suppression of 500 Da. […]

[2] = test system: cc-KDM4C; assay: MALDI-TOF-MS demethylation, truncated KDM4C; type: biochemical, human
Protocol: as §1, §2

[3] = target: T1, human cc-KDM4A (Homo sapiens, UniProt O75164); assay: competition experiment H3(1–24)K9me3-T11(ph) with H3(1–24)K9me3, truncated KDM4A; type: biochemical
T1 construct: Truncated constructs of KDM4A and KDM4C containing only the catalytic cores (cc-KDM4A/cc-KDM4C); made in house
T1 sequence (O75164 1-350 limits assumed): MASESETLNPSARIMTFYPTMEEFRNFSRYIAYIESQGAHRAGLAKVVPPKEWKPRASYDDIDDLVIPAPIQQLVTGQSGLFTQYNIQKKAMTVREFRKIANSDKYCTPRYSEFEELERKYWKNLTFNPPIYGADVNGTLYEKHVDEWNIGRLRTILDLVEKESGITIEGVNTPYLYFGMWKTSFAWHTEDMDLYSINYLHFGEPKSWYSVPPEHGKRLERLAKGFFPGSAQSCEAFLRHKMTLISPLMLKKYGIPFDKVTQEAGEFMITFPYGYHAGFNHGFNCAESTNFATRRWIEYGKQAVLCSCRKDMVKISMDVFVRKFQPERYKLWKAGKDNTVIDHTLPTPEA
Protocol: (§3) To investigate if H3(1–24)K9me3-T11(ph) could bind to the enzyme and act as an inhibitor, a competition experiment with H3(1–24)K9me3 was carried out.
as §1

[4] = target: T2, human cc-KDM4C (Homo sapiens, UniProt Q9H3R0); assay: competition experiment H3(1–24)K9me3-T11(ph) with H3(1–24)K9me3, truncated KDM4C; type: biochemical
T2 construct: Truncated constructs of KDM4A and KDM4C containing only the catalytic cores (cc-KDM4A/cc-KDM4C); made in house
T2 sequence (Q9H3R0 1-349 limits assumed): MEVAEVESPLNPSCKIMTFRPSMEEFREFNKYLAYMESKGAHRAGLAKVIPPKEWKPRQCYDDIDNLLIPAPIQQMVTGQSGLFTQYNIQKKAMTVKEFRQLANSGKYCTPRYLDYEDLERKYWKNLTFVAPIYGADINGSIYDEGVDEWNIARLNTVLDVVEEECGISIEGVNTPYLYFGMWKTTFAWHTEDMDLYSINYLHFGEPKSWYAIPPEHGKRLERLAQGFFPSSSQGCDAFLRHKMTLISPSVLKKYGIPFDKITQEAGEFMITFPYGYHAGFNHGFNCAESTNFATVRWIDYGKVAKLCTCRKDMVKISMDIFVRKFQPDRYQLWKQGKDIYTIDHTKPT
Protocol: as §3, §1

[5] = cc-KDM4A, H3(1–24)K9me3T11(ph) then H3(1–24)K9me3*
[6] = cc-KDM4C, H3(1–24)K9me3T11(ph) then H3(1–24)K9me3*

competition / inhibition (in words) ([3]; competition with H3(1–24)K9me3, results not shown, enzyme not named, cc-KDM4A in Table 1)	competition / inhibition (in words) ([4]; competition with H3(1–24)K9me3, results not shown, enzyme not named, cc-KDM4C in Table 1)	Substance	demethylation by MALDI-TOF-MS (in words) [1]	demethylation by MALDI-TOF-MS (in words) [2]	K m [3, 5]	k cat [3, 5]	k cat /K m ([3]; cc-KDM4A, H3(1–24)K9me3T11(ph) then H3(1–24)K9me3*, unit: (min^−1 * µM^−1) * 10^3)	K m [4, 6]	k cat [4, 6]
–	–	H3(1–24)K4me3K9me3: bis-tri-methylated substrate, trimethylated K4 in combination with H3K9me3	PTM product between mark K4me3 and mark K9me3	PTM product between mark K4me3 and mark K9me3	–	–	–	–	–
–	–	H3(1–24)K9me3: truncated histone tail, 24 first amino acids from the N-terminus of H3, trimethylated lysine 9; control peptide	–	–	132±23	1.4±0.08	10.6±1.9	43±22	0.3±0.05
does not act as an inhibitor	does not act as an inhibitor	H3(1–24)K9me3T11(ph): H3(1–24)K9me3 with phosphorylation of threonine 11	no detectable turnover	no detectable turnover	–	–	–	–	–
